Experimental data as given in PMC10938628 (Science Advances, 2022).

Tests used:
[1] = target: intact CarHC (C-terminal domain of the photoreceptor CarH); assay: SEC
[2] = target: the molecule itself; assay: SEC + other: dynamic light scattering
SEC = target: the molecule itself; assay: SEC

intact CarHC (C-terminal domain of the photoreceptor CarH) (domain or fragment)
stoichiometry N [1]: 4

B1: CarHCC (Phe161-Leu276 of the photoreceptor CarH; C-terminal Rossmann-fold B12-binding segment of split CarHC) (domain or fragment, UniProt Q53W62 161-276, looked up)
chain: FPPGPPVLVTTPPGERHEIGAMLAAYHLRRKGVPALYLGPDTPLPDLRALARRLGAGTVVLSAVLSEPLRALPDGALKDLAPRVFLGGQGAGPEEARRLGAEYMEDLKGLAEALWL
stoichiometry N [2]: 4

B2: reconstituted split CarHC complex (CarHCN + CarHCC held together by a cobalamin) (complex)
chain 1: PEDLGTGLLEALLRGDLAGAEALFRRGLRFWGPEGVLEHLLLPVLREVGEAWHRGEIGVAEEHLASTFLRARLQELLDLAGFPPGPP
chain 2: B1 chain
stoichiometry N (SEC): 4
